Data from US8133978.

Molecular target: Human interleukin-18 (recombinant human IL-18) (human) (UniProt Q14116)
Test: cell-based or functional assay

Sequence of Human interleukin-18 (recombinant human IL-18) (human) (Q14116 37-193 limits assumed): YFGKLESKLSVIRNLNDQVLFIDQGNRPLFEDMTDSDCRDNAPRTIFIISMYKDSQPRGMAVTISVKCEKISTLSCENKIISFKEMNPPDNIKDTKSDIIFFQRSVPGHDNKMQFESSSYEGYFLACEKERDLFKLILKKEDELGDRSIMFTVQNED
Sequence of IL-18 bp (IL-18 binding protein as used in the bioassays) (O95998 31-194 limits assumed): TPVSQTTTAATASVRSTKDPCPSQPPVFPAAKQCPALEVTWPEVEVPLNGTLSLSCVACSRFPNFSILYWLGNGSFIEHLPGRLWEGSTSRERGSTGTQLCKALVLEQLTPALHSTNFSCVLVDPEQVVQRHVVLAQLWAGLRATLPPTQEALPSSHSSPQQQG

- IC50, LPS-stimulated IFNγ release, human PBMC, Donor 1 10% serum: 0.024
- IC50, LPS-stimulated IFNγ release, human PBMC, Donor 1 25% serum: 0.064
- IC50, LPS-stimulated IFNγ release, human PBMC, Donor 3 10% serum: 0.032
- IC50, LPS-stimulated IFNγ release, human PBMC, Donor 3 25% serum: 0.046
- complete inhibition of IL-18 mediated IFNγ release, LPS-stimulated human PBMC, 10% or 25% human serum: > 1 µg/mL
Substance: IL-18 bp (IL-18 binding protein as used in the bioassays) (from UniProt O95998 31-194)
